We go through 1 molecule from patent US20060252677A1 (published 2006).

This assay addresses T1, His-tag fused human PJ01087 protein (Protein-Y) (human, UniProt O95886 1-979).
T1 construct: Used as 1% Triton-X supernatant of E. coli; also called His-PJ01087; not shown: N-terminal His-tag and linker encoded by vector pDEST17
T1 sequence: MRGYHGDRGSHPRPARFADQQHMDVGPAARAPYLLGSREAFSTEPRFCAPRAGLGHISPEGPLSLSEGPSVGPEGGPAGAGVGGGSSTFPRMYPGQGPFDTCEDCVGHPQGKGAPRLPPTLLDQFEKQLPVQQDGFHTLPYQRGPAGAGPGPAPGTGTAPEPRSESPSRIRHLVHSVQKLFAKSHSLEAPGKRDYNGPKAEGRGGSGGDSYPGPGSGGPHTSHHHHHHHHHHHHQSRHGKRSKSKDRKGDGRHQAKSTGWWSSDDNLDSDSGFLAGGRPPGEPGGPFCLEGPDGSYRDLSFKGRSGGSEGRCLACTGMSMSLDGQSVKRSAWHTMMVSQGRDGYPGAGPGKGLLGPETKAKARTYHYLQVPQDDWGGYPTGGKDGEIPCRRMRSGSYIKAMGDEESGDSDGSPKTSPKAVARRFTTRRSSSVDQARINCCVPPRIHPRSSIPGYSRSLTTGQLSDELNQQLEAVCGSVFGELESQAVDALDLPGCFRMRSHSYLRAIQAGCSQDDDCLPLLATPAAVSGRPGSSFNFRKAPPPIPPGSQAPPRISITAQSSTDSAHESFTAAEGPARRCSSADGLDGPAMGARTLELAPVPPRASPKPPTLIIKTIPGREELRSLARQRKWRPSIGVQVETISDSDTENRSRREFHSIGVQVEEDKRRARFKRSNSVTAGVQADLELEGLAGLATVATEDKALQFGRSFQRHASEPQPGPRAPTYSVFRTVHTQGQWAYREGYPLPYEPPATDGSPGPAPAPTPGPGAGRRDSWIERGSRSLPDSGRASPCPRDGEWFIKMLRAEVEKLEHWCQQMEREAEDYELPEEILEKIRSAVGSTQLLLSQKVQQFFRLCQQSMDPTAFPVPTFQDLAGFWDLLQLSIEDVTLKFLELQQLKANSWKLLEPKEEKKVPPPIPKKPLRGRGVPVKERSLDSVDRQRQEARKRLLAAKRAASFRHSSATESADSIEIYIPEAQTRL
Nature of the assay: Immunoprecipitation with anti-GST antibody and Protein G-sepharose, Western blot with anti-His-tag antibody. The method, then:
After adding 1 μl of anti-GST antibody (SIGMA) and agitating for 1 hour at 4° C., a further 30 μl of Protein G-sepharose was added thereto, and agitation proceeded for an additional 6 hours at 4° C. Thereafter, the supernatant was removed by centrifugation, and Protein G-sepharose was washed three times with 500 μl of 1% Triton-X/20 mM Tris (pH 7.4). After the washes, 30 μl of 2× sample buffer (2% SDS/50 mM Tris (pH 6.8)/30% glycerol/0.01% bromophenol blue) containing 2-mercaptoethanol was added to Protein G-sepharose and mixed. The samples were boiled for 2 minutes, subjected to electrophoresis on a 5%-20% polyacrylamide gel, and transferred onto a PVDF membrane. Then Western blotting was performed with anti-GST antibodies and anti-His-tag antibodies.
However, when Protein-Y (His-PJ01087) was reacted with Protein-X (GST-hj02537) or the Protein-X mutant (GST-hj (GK−)) to perform immunoprecipitation with an anti-GST antibody followed by detecting with an anti-His-tag antibody, no band showing Protein-Y was detected. Thus, no result showing that binding of Protein-Y to Protein-X exists could be obtained (lanes 5 or 6 in FIG. 23).
In general terms: Immunoblotting shows a protein as a band on a membrane.

B1: GST fused novel PSD (Protein-X) (hj02537) (other, not shown: a dimerising Fc or GST)
chain: MPALSTGSGSDTGLYELLAALPAQLQPHVDSQEDLTFLWDMFGEKSLHSLVKIHEKLHYYEKQSPVPILHGAAALADDLAEELQNKPLNSEIRELLKLLSKPNVKALLSVHDTVAQKNYDPVLPPMPEDIDDEEDSVKIIRLVKNREPLGATIKKDEQTGAIIVARIMRGGAADRSGLIHVGDELREVNGIPVEDKRPEEIIQILAQSQGAITFKIIPGSKEETPSKEGKMFIKALFDYNPNEDKAIPCKEAGLSFKKGDILQIMSQDDATWWQAKHEADANPRAGLIPSKHFQERRLALRRPEILVQPLKVSNRKSSGFRRSFRLSRKDKKTNKSMYECKKSDQYDTADVPTYEEVTPYRRQTNEKYRLVVLVGPVGVGLNELKRKLLISDTQHYGVTVPHTTRARRSQESDGVEYIFISKHLFETDVQNNKFIEYGEYKNNYYGTSIDSVRSVLAKNKVCLLDVQPHTVKHLRTLEFKPYVIFIKPPSIERLRETRKNAKIISSRDDQGAAKPFTEEDFQEMIKSAQIMESQYGHLFDKIIINDDLTVAFNELKTTFDKLETETHWVPVSWLHS
notes: Crude 1% Triton-X E. coli supernatant used for immunoprecipitation; also called GST-hj02537
For B1, the binding result was “no binding”.
